For series [1], the system named is H132R (HIV-1 / Rous sarcoma virus chimera). Nature of the series: FA salt titration.
Series [2] has as its system HIV-1 Gag∆p6 (HIV-1). Kind of series: FA salt titration.
Series [3] has as its system RSV Gag∆PR (Rous sarcoma virus, Prague C strain). Kind of series: FA salt titration.
In series [4] the test system is R155H (Rous sarcoma virus (Prague C) / HIV-1 chimera). Nature of the series: FA salt titration.
The test system of series [5] is RSV Gag∆PR (Rous sarcoma virus, Prague C strain). Kind of series: fluorescence anisotropy. On the technique in general: In fluorescence polarisation assays a small probe gives low polarisation when free and higher when bound to something large.
In series [6] the test system is RSV CANC (Rous sarcoma virus, Prague C strain). Kind of series: FA salt titration.
Series [7] concerns H132R (HIV-1 / Rous sarcoma virus chimera). Nature of the series: fluorescence anisotropy.
Series [8] relates to HIV-1 Gag∆p6 (HIV-1). Nature of the series: fluorescence anisotropy.

By pKd is commonly meant the Kd on a negative log10 scale, so that one unit is a factor of ten.

pKd: −log10 of the molar value.

Regarding HIV-1 TARpolyA, the pKd is 0.54 in series [1]; 0.25 in series [2]; 1.40 in series [3]; -0.41 in series [4]; 7.74 in series [5].

Regarding HIV-1 Ψ-WT, the pKd is 1.72 in series [1]; 4.44 in series [2]; 1.49 in series [3]; 4.51 in series [4]; 7.85 in series [5].

As to RSV MΨ A197G, in series [3], the negative logarithm of the Kd (pKd) was 4.33.

For the substance RSV MΨ GG to CC, the negative logarithm of the Kd (pKd) in series [3] is 3.31.

In the case of RSV MΨ UGCG to GAGA, in series [3], the negative logarithm of the Kd (pKd) was 4.92.

For RSV MΨ WT, the pKd in series [1] was 4.14; in series [2], 4.26; in series [6], 4.89; in series [3], 4.15; in series [4], 4.17; in series [7] it was 7.89. Also, the pKd in series [8] is 7.85.

Values taken from publication PMC5035970.
